# Data as given in patent publication US20260035450A1 (Novo Nordisk, published 2026).
# T1: recombinant human ANGPTL3 (rhANGPTL3) (SEQ ID NO:1) (human, UniProt Q9Y5C1 17-460)
# T1 sequence: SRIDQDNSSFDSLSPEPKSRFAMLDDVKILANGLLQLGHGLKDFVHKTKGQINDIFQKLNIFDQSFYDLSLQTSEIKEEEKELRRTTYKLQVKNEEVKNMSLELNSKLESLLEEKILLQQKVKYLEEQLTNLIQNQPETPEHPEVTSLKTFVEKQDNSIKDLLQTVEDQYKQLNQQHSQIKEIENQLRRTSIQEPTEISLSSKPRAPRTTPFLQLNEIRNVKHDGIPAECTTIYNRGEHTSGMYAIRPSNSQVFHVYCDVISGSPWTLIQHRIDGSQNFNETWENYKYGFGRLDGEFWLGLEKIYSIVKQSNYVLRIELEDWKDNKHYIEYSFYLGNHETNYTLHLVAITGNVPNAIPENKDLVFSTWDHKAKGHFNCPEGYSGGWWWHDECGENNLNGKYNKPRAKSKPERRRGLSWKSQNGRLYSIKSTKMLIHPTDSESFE
# Target: T1, recombinant human ANGPTL3 (rhANGPTL3) …
# Experiment: cell-based or functional assay
row,Average relative IC50 (inhibition of rhANGPTL3-mediated LPL inhibition),Binder
1,3.7 relative to evinacumab SIA,"tmAb1 (antibody, human IgG1, kappa) heavy: EVQLLESGGGLVQPGGSLRLSCAASGFNFRSYWMTWVRQAPGKGLEWVSSISSHSTYIYYADSVKGRFTISRDNSKNTLYLQMNSLRAEDTATYYCAREGWYDNWFDPWGQGTLVTVSSASTKGPSVFPLAPSSKSTSGGTAALGCLVKDYFPEPVTVSWNSGALTSGVHTFPAVLQSSGLYSLSSVVTVPSSSLGTQTYICNVNHKPSNTKVDKKVEPKSCDKTHTCPPCPAPEYLGGDSVFLFPPKPKDVLYITREPEVTCVVIDVSHEDPEVKFNWYVDGVEVHNAKTKPREEQYNSTYRVVSVLPVLHRDWLNGKEYKCKVSNKALPKPIEKTISKAKGQRREPQVYTLPPSREEMTKNQVSLWCLVKGFYPSDIAVEWESNGQPENNYKTTPPVLDSDGSFFLYSKLTVDKSRWQQGNVFSCSVMHEALHNHYTQKSLSLSP DKTHTCPPCPAPEYLGGDSVFLFPPKPKDVLYITREPEVTCVVIDVSHEDPEVKFNWYVDGVEVHNAKTKPREEQYNSTYRVVSVLPVLHRDWLNGKEYKCKVSNKALPKPIEKTISKAKGQRREPQVYTLPPSREEMTKNQVSLSCAVKGFYPSDIAVEWESNGQPENNYKTTPPVLDSDGSFFLVSKLTVDKSRWQQGNVFSCSVMHEALHNHYTQKSLSLSP light: EIVLTQSPGTLSLSPGERATLSCRASQNIRSPYLAWYQQKPGQAPRLLIYGVSSRAAGIPDRFSGSGSGTDFTLTISRLEPEDFAVYYCQQYDDHPYTFGQGTKLEIKRTVAAPSVFIFPPSDEQLKSGTASVVCLLNNFYPREAKVQWKVDNALQSGNSQESVTEQDSKDSTYSLSSTLTLSKADYEKHKVYACEVTHQGLSSPVTKSFNRGEC"
2,4.8 relative to evinacumab SIA,"tmAb3 (antibody, human IgG1, kappa) heavy: EVQLLESGGGLVQPGGSLRLSCAASGFNFESYWMTWVRQAPGKGLEWVSSISSHSTYIYYADSVKGRFTISRDNSKNTLYLQMNSLRAEDTATYYCAREGWYDNWFDPWGQGTLVTVSSASTKGPSVFPLAPSSKSTSGGTAALGCLVKDYFPEPVTVSWNSGALTSGVHTFPAVLQSSGLYSLSSVVTVPSSSLGTQTYICNVNHKPSNTKVDKKVEPKSCDKTHTCPPCPAPEYLGGDSVFLFPPKPKDVLYITREPEVTCVVIDVSHEDPEVKFNWYVDGVEVHNAKTKPREEQYNSTYRVVSVLPVLHRDWLNGKEYKCKVSNKALPKPIEKTISKAKGQRREPQVYTLPPSREEMTKNQVSLWCLVKGFYPSDIAVEWESNGQPENNYKTTPPVLDSDGSFFLYSKLTVDKSRWQQGNVFSCSVMHEALHNHYTQKSLSLSP DKTHTCPPCPAPEYLGGDSVFLFPPKPKDVLYITREPEVTCVVIDVSHEDPEVKFNWYVDGVEVHNAKTKPREEQYNSTYRVVSVLPVLHRDWLNGKEYKCKVSNKALPKPIEKTISKAKGQRREPQVYTLPPSREEMTKNQVSLSCAVKGFYPSDIAVEWESNGQPENNYKTTPPVLDSDGSFFLVSKLTVDKSRWQQGNVFSCSVMHEALHNHYTQKSLSLSP light: EIVLTQSPGTLSLSPGERATLSCRASQNIRSPYLAWYQQKPGQAPRLLIYGVSSRAAGIPDRFSGSGSGTDFTLTISRLEPEDFAVYYCQQYDDHPYTFGQGTKLEIKRTVAAPSVFIFPPSDEQLKSGTASVVCLLNNFYPREAKVQWKVDNALQSGNSQESVTEQDSKDSTYSLSSTLTLSKADYEKHKVYACEVTHQGLSSPVTKSFNRGEC"
3,2.5 relative to evinacumab SIA,"tmAb2 (antibody, human IgG1, kappa) heavy: EVQLLESGGGLVQPGGSLRLSCAASDFNFRSYWMTWVRQAPGKGLEWVSSISSHSTYIYYADSVKGRFTISRDNSKNTLYLQMNSLRAEDTATYYCAREGWYDNWFDPWGQGTLVTVSSASTKGPSVFPLAPSSKSTSGGTAALGCLVKDYFPEPVTVSWNSGALTSGVHTFPAVLQSSGLYSLSSVVTVPSSSLGTQTYICNVNHKPSNTKVDKKVEPKSCDKTHTCPPCPAPEYLGGDSVFLFPPKPKDVLYITREPEVTCVVIDVSHEDPEVKFNWYVDGVEVHNAKTKPREEQYNSTYRVVSVLPVLHRDWLNGKEYKCKVSNKALPKPIEKTISKAKGQRREPQVYTLPPSREEMTKNQVSLWCLVKGFYPSDIAVEWESNGQPENNYKTTPPVLDSDGSFFLYSKLTVDKSRWQQGNVFSCSVMHEALHNHYTQKSLSLSP DKTHTCPPCPAPEYLGGDSVFLFPPKPKDVLYITREPEVTCVVIDVSHEDPEVKFNWYVDGVEVHNAKTKPREEQYNSTYRVVSVLPVLHRDWLNGKEYKCKVSNKALPKPIEKTISKAKGQRREPQVYTLPPSREEMTKNQVSLSCAVKGFYPSDIAVEWESNGQPENNYKTTPPVLDSDGSFFLVSKLTVDKSRWQQGNVFSCSVMHEALHNHYTQKSLSLSP light: EIVLTQSPGTLSLSPGERATLSCRASQNIRSPYLAWYQQKPGQAPRLLIYGVSSRAAGIPDRFSGSGSGTDFTLTISRLEPEDFAVYYCQQYDDHPYTFGQGTKLEIKRTVAAPSVFIFPPSDEQLKSGTASVVCLLNNFYPREAKVQWKVDNALQSGNSQESVTEQDSKDSTYSLSSTLTLSKADYEKHKVYACEVTHQGLSSPVTKSFNRGEC"
4,1.3 relative to evinacumab SIA,"tmAb4 (antibody, human IgG1, kappa) heavy: EVQLLESGGGLVQPGGSLRLSCAASGFNFESYWMTWVRQAPGKGLEWVSSISSHSTYIYYADSVKGRFTISRDNSKNTLYLQMNSLRAEDTATYYCAREGWYDNWNDPWGQGTLVTVSSASTKGPSVFPLAPSSKSTSGGTAALGCLVKDYFPEPVTVSWNSGALTSGVHTFPAVLQSSGLYSLSSVVTVPSSSLGTQTYICNVNHKPSNTKVDKKVEPKSCDKTHTCPPCPAPEYLGGDSVFLFPPKPKDVLYITREPEVTCVVIDVSHEDPEVKFNWYVDGVEVHNAKTKPREEQYNSTYRVVSVLPVLHRDWLNGKEYKCKVSNKALPKPIEKTISKAKGQRREPQVYTLPPSREEMTKNQVSLWCLVKGFYPSDIAVEWESNGQPENNYKTTPPVLDSDGSFFLYSKLTVDKSRWQQGNVFSCSVMHEALHNHYTQKSLSLSP DKTHTCPPCPAPEYLGGDSVFLFPPKPKDVLYITREPEVTCVVIDVSHEDPEVKFNWYVDGVEVHNAKTKPREEQYNSTYRVVSVLPVLHRDWLNGKEYKCKVSNKALPKPIEKTISKAKGQRREPQVYTLPPSREEMTKNQVSLSCAVKGFYPSDIAVEWESNGQPENNYKTTPPVLDSDGSFFLVSKLTVDKSRWQQGNVFSCSVMHEALHNHYTQKSLSLSP light: EIVLTQSPGTLSLSPGERATLSCRASQNIRSPYLAWYQQKPGQAPRLLIYGVSSRAAGIPDRFSGSGSGTDFTLTISRLEPEDFAVYYCQQYDDHPYTFGQGTKLEIKRTVAAPSVFIFPPSDEQLKSGTASVVCLLNNFYPREAKVQWKVDNALQSGNSQESVTEQDSKDSTYSLSSTLTLSKADYEKHKVYACEVTHQGLSSPVTKSFNRGEC"
